Laboratory results: patent US11124779B2, “Compositions and methods for treating and preventing pancreatitis, renal injury and cancer” (Yale University, priority 2014, dated 2021)
“Also recorded” adds a separate entry of the source.

Columns and labels:
PMCA [1] = target: T1, PMCA (Mus musculus, UniProt Q6Q477); assay: Ca2+ efflux through PMCA, time lapse confocal microscopy, mouse acinar cells; assay type: cell-based
T1 sequence (Q6Q477 1-1205): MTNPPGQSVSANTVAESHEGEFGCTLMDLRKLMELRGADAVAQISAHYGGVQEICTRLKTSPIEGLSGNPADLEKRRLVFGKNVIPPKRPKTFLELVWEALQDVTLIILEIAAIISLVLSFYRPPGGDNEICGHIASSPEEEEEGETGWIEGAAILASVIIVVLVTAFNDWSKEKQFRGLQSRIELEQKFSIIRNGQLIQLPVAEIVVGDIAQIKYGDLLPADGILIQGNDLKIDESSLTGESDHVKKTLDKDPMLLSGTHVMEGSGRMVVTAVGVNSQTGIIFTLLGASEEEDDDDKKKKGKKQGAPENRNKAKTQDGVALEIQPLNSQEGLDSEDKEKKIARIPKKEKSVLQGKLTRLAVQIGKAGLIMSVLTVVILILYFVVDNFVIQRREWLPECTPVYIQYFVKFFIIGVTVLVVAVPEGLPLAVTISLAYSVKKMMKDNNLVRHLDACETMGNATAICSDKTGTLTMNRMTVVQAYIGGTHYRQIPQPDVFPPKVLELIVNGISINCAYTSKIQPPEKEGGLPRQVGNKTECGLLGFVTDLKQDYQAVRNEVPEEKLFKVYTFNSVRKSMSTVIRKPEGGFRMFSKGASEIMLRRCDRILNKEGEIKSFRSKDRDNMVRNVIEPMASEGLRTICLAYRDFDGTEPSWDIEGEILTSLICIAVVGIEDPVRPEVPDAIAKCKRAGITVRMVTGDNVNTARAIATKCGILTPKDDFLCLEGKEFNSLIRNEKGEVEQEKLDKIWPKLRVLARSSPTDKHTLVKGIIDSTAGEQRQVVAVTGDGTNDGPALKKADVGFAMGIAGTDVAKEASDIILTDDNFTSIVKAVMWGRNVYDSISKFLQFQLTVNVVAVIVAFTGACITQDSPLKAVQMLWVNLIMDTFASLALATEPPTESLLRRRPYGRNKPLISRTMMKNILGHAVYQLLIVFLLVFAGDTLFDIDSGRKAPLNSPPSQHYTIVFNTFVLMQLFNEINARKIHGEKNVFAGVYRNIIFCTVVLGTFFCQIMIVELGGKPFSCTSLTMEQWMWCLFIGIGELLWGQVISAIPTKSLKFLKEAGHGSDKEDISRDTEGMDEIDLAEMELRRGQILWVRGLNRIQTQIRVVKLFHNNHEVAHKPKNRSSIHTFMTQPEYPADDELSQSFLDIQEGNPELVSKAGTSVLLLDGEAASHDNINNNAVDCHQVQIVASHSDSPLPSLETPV
Experimental: (§1) FIGS. 12A-12F, depict the results of experiments showing renalase increases Ca^2+ efflux through PCMA. Changes in whole cell cytosolic Ca^2+ were recorded with the Ca^2+ dye Fluo-4 (HK2 cells) or Fluo-5 (acinar cell) by time lapse confocal microscopy. FIGS. 12A, 12B, 12D, and 12E are representative plots of fluorescence over time in HK2 cells (FIGS. 12A and 12B) or mouse acinar cells (FIGS. 12D and 12E). Cells were pretreated with 30 μM cyclopiazonic acid and perfused with Ca^2+-free medium. Cells were briefly stimulated with 10 nM angiotensin IV (Ang in HK2 cells) or 100 nM cerulein (Cer in acinar cells) in the presence of 1.3 mM Ca^2+. […] For FIGS. 12C and 12F, the rate of Ca^2+ efflux was quantified from 30 cells/treatment group. *p<0.05 vs. no renalase. […]
(§2) PMCA selectively binds renalase (FIG. 6). […] Since the protective effects of renalase were first characterized in HK-2 cells (human kidney cell line) (Lee et al., 2013, J Am Soc Nephrol 24, 445-455; Wang et al., 2014, Journal of the American Society of Nephrology: JASN), its effects on Ca^2+ signals were evaluated in these cells and subsequently in mouse acinar cells (FIG. 12). […] Perfusion buffer was then switched back to Ca^2+-free medium in the presence or absence of renalase, and cytosolic Ca^2+ levels were monitored over time and the rates of Ca^2+ efflux were calculated (FIG. 12). […]

ERK = conditions: HK-2 cell, treatment alone; Wang et al., 2014; cited from earlier work
[2] = cited from earlier work
isolated mouse acini [3] = assay: Injury of isolated mouse pancreatic acini (MTT, LDH release, H&E histology); assay type: cell-based; conditions: WT mouse acini, renalase 25 μg/mL, cerulein
Experimental: (§3) FIGS. 9A-9E, depict the results of experiments that show recombinant exogenous renalase reduce zymogen activation and injury in vitro in mice. (FIG. 9A) Isolated WT mouse acini were pretreated for 30 minutes with recombinant renalase (25 μg/mL; 0.1 μM) and then treated with either (FIG. 9A, 9D, 9E) physiologic (0.1 nM) and supraphysiologic (100 nM) cerulein or (FIG. 9B) physiologic (1 μM) or supraphysiologic (1000 μM) carbachol for 30 minutes. Trypsin activity (FIGS. 9A-9C), MTT accumulation (FIG. 9D), and LDH release (FIG. 9E) were assayed using a fluorogenic substrate. For FIG. 9C, isolated acini from renalase ^−/^− mice were treated pretreated with recombinant renalase (25 μg/mL) and then treated with cerulein (0.1 nM or 100 nM) for 30 minutes. *p<0.05 vs. supraphysiologic cerulein or carbachol, # p<0.05 vs. WT, n=3, +/−SEM.
FIGS. 13A-13C, depict the results of experiments showing caloxin blocks the protective effects of renalase. […]
Next, it was assessed whether pretreatment with recombinant human renalase reduces injury in pancreatitis. This was first assessed in isolated groups of murine acinar cells (acini) that were exposed to supraphysiologic concentrations of cerulein and carbachol (which induces early acinar cell pancreatitis responses) in isolated WT mouse acini and acini isolated from renalase deficient mice in vitro (FIG. 9). […]

WT mice = assay: Cerulein-induced pancreatitis in vivo; design: species or system mouse; conditions: single IP dose 2 hours after initiating cerulein pancreatitis; sacrificed at hour 7
Experimental: FIGS. 10A-10G, depict the results of experiments showing that pretreatment with renalase peptide (RP-220) ameliorates cerulein-induced pancreatitis in vivo. WT mice were treated with 6 hourly IP injections of cerulein (CER, 40 mcg/kg). IP renalase peptide, RP-220 (renalase, 1.3 mg/kg) was given 1 hour before first cerulein injection. (FIG. 10A) Pancreatic trypsin activation measured with fluorogenic substrate, normalized to total protein. (FIG. 10B) Edema measured as % wet weight. (FIG. 10C) Apoptosis evaluated by TUNEL positive cells. (FIG. 10D) Neutrophils (Ly-6B) and (FIG. 10E) macrophages (F4/80) were quantified. Pancreas H&E sections (FIG. 10G) were evaluated for edema, pyknotic nucei, and vacuoles to derive morphological score (FIG. 10F). *p<0.05 vs. WT-CER, +/−SEM, n=5.
A single dose of renalase was given intraperitoneally (100 μg peptide/25 g body weight) 2 hours after inducing cerulein-pancreatitis. Six hourly injections IP of 50 μg/kg and animals were sacrificed at hour 7. Histologic pancreatitis severity was evaluated by two blinded reviewers. […] N=4 mice in each group.
To determine whether the protective of renalase observed in isolated acini was relevant in vivo, WT mice were pretreated (1 hour) with a single dose of the renalase peptide (RP-220) intraperitoneally (100 μg peptide/25 g body weight) prior to inducing cerulein-pancreatitis (6 hourly injections IP of 50 μg/kg). […]

HK-2 cells = assay: In vitro model of cisplatin toxicity: HK-2 cell survival by the WST-1 method; assay type: cell-based, human; conditions: 20 μM cisplatin, 24 hrs; test substance 80 μg/ml
Experimental: FIG. 1B is a graph depicting the effect of renalase peptides on survival of HK-2 cells exposed to 20 μM cisplatin for 24 hrs; cell survival is depicted as % change in survival compared to that in cisplatin-treated HK-2 cells without renalase peptides; cell survival was measured by the WST-1 method; RP-A220: mutated RP-220, and RP-19 and RP-128: control peptides; peptide concentration (μg/ml) indicated in top line; n=4, *=p<0.05. […]
HK-2 cells (human proximal tubular line) obtained from ATTC (Manassas, Va., USA) were cultured in DMEM/F12 supplemented with glutamine, 10% FBS and antibiotics, and were maintained at 37° C. in 5% CO2. Cells were exposed to cisplatin (20 μM) in the presence or absence of recombinant renalase or renalase peptides for 24 hrs, and cell viability was assessed by the WST1 method (Roche Applied Science, Germany).

renalase KO mice = conditions: Wang et al., 2014; cited from earlier work
mice = conditions: literature (Lee et al., 2013; Wang et al., 2014); cited from earlier work
p38 MAPK = conditions: HK-2 cell, treatment alone; Wang et al., 2014; cited from earlier work
PMCA [4] = target: PMCA (Homo sapiens, UniProt P23634); assay: Ca2+ efflux through PMCA, time lapse confocal microscopy, HK2 cells; assay type: cell-based
Chain of PMCA (Homo sapiens, UniProt P23634) (P23634 1-1205 isoform P23634-6): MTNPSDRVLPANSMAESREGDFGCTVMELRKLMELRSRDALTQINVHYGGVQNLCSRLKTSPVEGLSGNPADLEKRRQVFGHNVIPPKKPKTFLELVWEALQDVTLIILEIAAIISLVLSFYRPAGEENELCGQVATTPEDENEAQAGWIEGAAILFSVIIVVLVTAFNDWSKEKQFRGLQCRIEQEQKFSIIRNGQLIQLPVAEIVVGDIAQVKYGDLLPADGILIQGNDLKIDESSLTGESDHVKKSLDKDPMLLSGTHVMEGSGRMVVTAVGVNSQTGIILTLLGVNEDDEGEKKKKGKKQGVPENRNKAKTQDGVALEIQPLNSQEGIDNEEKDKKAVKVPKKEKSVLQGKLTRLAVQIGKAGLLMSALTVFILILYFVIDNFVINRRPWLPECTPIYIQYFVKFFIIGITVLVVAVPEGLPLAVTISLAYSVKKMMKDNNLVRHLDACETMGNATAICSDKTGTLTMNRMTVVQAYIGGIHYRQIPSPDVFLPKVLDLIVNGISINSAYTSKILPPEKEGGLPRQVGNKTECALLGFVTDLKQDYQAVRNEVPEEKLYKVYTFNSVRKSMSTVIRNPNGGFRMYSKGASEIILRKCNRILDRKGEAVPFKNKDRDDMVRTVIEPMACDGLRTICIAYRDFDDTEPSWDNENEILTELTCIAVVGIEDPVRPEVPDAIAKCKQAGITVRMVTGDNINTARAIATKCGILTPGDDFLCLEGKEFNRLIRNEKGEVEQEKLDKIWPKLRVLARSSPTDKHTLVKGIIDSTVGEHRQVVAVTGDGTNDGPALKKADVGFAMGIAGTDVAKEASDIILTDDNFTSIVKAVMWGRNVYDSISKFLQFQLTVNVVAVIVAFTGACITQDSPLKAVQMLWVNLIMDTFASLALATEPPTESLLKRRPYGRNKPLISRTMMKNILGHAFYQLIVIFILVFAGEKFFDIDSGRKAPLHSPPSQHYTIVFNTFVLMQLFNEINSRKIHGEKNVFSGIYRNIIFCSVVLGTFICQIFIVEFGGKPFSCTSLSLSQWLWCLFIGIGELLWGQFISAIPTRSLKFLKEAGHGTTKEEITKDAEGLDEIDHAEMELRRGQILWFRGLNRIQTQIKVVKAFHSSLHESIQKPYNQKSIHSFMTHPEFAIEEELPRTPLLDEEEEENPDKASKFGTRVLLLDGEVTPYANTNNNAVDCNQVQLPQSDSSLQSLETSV
Experimental: as §1, §2

isolated mouse acini [5] = assay: Trypsin activity (zymogen activation) in isolated mouse pancreatic acini; assay type: cell-based
Experimental: as §3
FIGS. 13A-13C, depict the results of experiments showing caloxin blocks the protective effects of renalase. Isolated WT mouse acini were pretreated for 30 minutes with caloxin 1b (100 μM) and/or recombinant renalase (25 μg/mL) and then treated with supraphysiologic (100 nM) cerulein (CER) and assayed for trypsin activity (FIG. 13A) or MTT conversion (FIG. 13B). *p<0.05 vs. CER, # p<0.05 vs. CER+renalase. WT, n=3, +/−SEM.
Next, it was assessed whether pretreatment with recombinant human renalase reduces injury in pancreatitis. This was first assessed in isolated groups of murine acinar cells (acini) that were exposed to supraphysiologic concentrations of cerulein and carbachol (which induces early acinar cell pancreatitis responses) in isolated WT mouse acini and acini isolated from renalase deficient mice in vitro (FIG. 9). The recombinant renalase reduced trypsinogen activation induced by either cerulein (FIG. 9A) or carbachol (FIG. 9B). […] Renalase had no effect on untreated acini or acini treated with physiologic stimulation.

baseline Ca2+ levels (PMCA [1]): did not change | rate of Ca2+ efflux (PMCA [1]; 100 nM cerulein, Ca2+-free medium, cyclopiazonic acid): increased | baseline Ca2+ levels (PMCA [4]): did not change | rate of Ca2+ efflux (PMCA [4]; 10 nM angiotensin IV, Ca2+-free and Na+-free medium, cyclopiazonic acid): increased | trypsinogen activation in acini from renalase knockout (KO) mice (isolated mouse acini [5]; renalase 25 μg/mL, cerulein 0.1 nM or 100 nM, 30 minutes): reduced
B1: recombinant renalase: recombinant full-length human renalase, secretory flavoprotein oxidase; synthesized as in Desir et al., 2012; SEQ ID NO: 8 or 9 (protein)
chain: ALLRRQTSGPLYLAVWDKAEDSGGRMTTACSPHNPQCTADLGAQYITCTPHYAKKHQRFYDELLAYGVLRPLSSPIEGMVMKEGDCNFVAPQGISSIIKHYLKESGAEVYFRHRVTQINLRDDKWEVSKQTGSPEQFDLIVLTMPVPEILQLQGDITTLISECQRQQLEAVSYSSRYALGLFYEAGTKIDVPWAGQYITSNPCIRFVSIDNKKRNIESSEIGPSLVIHTTVPFGVTYLEHSIEDVQELVFQQLENILPGLPQPIATKCQKWRHSQVTNAAANCPGQMTLHHKPFLACGGDGFTQSNFDGCITSALCVLEALKNYI
ERK phosphorylation (ERK): rapidly increased | blood pressure ([2]; rodents, Xu et al., 2005, Milani et al., 2011): decreases blood pressure | plasma catecholamines ([2]; wild type (WT) mice): lowers | systemic blood pressure ([2]; wild type (WT) mice): lowers | injury of acini in vitro (MTT accumulation, LDH release) (isolated mouse acini [3]): reduce | individual and aggregate histologic scores of pancreatitis (WT mice): significantly decreased injury; also recorded: significantly less | survival of HK-2 cells exposed to cisplatin (protective effect) (HK-2 cells): protected HK-2 cells to a similar degree | activating MAPK signaling in renalase KO mice (renalase KO mice): neither renalase nor RP-220 is effective | protecting renalase KO mice against mild or severe ischemic AKI (renalase KO mice): neither renalase nor RP-220 is effective | ischemic acute kidney injury (AKI) (mice): significantly attenuates; also recorded: protects mice against ischemic AKI | p38 phosphorylation (p38 MAPK): rapidly increased | trypsinogen activation induced by cerulein (isolated mouse acini [5]; WT mouse acini, renalase 25 μg/mL 30 minutes pretreatment, supraphysiologic (100 nM) cerulein): reduced | trypsinogen activation induced by carbachol (isolated mouse acini [5]; WT mouse acini, renalase 25 μg/mL 30 minutes pretreatment, supraphysiologic (1000 μM) carbachol): reduced | effect on untreated acini (isolated mouse acini [5]; no stimulation): no effect | effect on acini treated with physiologic stimulation (isolated mouse acini [5]; physiologic cerulein (0.1 nM) or carbachol (1 μM)): no effect
